Measured values as given in paper PMC8844826 (iScience, 2022).
Ends that are not written are not given here. TAMRA = 5 (and 6)-carboxytetramethylrhodamine

Legend:
GST-Arc 195-364 (rat) = target: T1, GST-Arc 195-364 (rat) (rat, UniProt Q63053 195-364); assay: fluorescence polarisation; saturation binding: increasing protein, fixed fluorescently labeled peptide; 50 mM Tris (pH 8.0), 300 mM NaCl, 10 mM EDTA, 1 mM TCEP; 20 min on ice; settings: both partners purified
T1 construct: rat Arc residues 195-364, Uniprot Q63053; GST is followed by a thrombin and a factor Xa site; the protein was eluted with glutathione and no cleavage is described; also called pGEX4T1-Arc 195-364; source: E. coli BL21-DE3-pLysS, purified (Glutathione Sepharose, SEC)
T1 sequence (looked up): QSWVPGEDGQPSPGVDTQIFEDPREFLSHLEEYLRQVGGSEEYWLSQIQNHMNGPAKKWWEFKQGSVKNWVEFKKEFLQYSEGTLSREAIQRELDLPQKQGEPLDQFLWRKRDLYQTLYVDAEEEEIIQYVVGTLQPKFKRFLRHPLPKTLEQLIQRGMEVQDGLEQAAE

[1] = target: T2, full length PSD-95 (FL-PSD-95, 1-724) (human, UniProt P78352 1-724); assay: as above; settings: both partners purified
T2 construct: construct 32M3C-PSD-95 FL 1-724 from Zeng et al. (2016a); A PreScission 3C site follows the tags; For the arrays 0.1 uM of 1 uM was labelled with Alexa 633 (maleimide); also called PSD protein 95; 32M3C-PSD-95 FL; source: E. coli BL21-DE3-pLysS, purified (HisTrap, SEC)
T2 sequence (P78352 whole entry): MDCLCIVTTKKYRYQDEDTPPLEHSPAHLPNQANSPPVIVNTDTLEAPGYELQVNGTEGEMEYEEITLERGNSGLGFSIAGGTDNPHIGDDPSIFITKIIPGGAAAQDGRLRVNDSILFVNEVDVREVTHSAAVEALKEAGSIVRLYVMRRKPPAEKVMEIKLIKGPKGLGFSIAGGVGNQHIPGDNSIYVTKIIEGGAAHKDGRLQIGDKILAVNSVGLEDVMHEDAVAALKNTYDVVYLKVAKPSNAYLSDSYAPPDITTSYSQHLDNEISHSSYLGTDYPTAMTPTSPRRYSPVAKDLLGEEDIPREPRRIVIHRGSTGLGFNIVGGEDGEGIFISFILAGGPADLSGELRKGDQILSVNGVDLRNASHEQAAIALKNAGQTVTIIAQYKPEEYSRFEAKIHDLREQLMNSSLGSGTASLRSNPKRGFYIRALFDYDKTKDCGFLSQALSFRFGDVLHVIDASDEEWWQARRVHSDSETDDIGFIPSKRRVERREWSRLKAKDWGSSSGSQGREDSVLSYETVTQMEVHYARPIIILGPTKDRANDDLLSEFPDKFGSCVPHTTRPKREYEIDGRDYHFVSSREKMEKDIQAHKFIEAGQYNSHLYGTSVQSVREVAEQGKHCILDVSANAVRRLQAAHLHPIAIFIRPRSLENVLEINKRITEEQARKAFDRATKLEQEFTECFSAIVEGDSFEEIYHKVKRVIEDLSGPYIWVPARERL

B1: TAMRA-G-A222ITRIPSYRYRYQRR236 (fluorescently labeled Stg A222-R236 peptide) (peptide)
peptide: {TAMRA}-GAITRIPSYRYRYQRR
notes: added glycine between TAMRA and A222; also called TMR labeled Stg_(A222-R236); source: synthetic peptide (in-house)
Kd (GST-Arc 195-364 (rat)): 8.37 ± 1.25 µM | Kd [1]: 14.9 ± 3 µM
